Reference: patent US20210238260A1 (published 2021)
Where a chain is given by its changes, count along the chain named. Names may count otherwise.

T1: Factor VIIIa (FVIIIa), from recombinant FVIII (Kogenate FS; Bayer healthcare) activated with alpha-thrombin (UniProt P00451 20-2351)
T1 sequence (looked up): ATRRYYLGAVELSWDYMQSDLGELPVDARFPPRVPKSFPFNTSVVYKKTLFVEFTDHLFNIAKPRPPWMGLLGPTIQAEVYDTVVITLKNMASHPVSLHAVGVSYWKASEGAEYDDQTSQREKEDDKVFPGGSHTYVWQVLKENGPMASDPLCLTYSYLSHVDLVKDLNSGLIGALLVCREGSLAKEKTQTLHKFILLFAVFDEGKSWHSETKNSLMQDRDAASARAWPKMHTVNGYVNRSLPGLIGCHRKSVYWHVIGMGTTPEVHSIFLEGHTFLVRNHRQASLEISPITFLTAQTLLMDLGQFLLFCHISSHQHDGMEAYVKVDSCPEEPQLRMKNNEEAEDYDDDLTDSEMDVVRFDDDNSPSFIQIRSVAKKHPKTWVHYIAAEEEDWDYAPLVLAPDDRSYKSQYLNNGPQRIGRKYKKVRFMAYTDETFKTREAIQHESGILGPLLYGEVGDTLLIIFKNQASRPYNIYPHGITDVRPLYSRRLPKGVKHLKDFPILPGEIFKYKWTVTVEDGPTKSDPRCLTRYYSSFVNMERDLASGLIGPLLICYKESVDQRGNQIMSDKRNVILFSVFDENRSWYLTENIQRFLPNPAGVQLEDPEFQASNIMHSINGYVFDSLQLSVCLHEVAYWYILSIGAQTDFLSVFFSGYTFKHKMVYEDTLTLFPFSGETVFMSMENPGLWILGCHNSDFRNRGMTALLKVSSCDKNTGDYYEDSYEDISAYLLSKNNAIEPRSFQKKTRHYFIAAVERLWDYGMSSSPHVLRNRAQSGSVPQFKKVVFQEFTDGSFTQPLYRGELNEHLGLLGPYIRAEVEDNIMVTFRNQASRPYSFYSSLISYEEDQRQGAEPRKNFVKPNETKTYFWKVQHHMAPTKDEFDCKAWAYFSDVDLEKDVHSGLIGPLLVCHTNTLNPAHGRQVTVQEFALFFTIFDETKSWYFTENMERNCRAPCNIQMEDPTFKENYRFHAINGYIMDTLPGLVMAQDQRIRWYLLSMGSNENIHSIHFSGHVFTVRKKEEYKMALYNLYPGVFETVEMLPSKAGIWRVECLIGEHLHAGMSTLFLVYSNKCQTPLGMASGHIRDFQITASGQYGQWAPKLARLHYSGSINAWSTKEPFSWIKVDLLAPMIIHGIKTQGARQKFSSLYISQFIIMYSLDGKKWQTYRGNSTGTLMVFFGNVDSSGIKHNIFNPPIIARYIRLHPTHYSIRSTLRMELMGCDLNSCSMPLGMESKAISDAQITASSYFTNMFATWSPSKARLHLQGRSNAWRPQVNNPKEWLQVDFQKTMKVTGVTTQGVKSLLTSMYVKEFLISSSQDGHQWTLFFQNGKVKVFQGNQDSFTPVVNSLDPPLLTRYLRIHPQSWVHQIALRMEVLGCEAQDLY

T2: Factor VIIIa (recombinant FVIII, Kogenate FS, activated with alpha-thrombin) (UniProt P00451 20-2351)
T2 construct: also called FVIIIa
T2 sequence (looked up): T1 sequence (looked up)

B1: FIXa-A103N/N105S/K247N/N249S/R318Y/R338E/R403E/E410N (enzyme)
chain 1: YNSGKLEEFVQGNLERECMEEKCSFEEAREVFENTERTTEFWKQYVDGDQCESNPCLNGGSCKDDINSYECWCPFGFEGKNCELDVTCNIKNGRCEQFCKNSNDSKVVCSCTEGYRLAENQKSCEPAVPFPCGRVSVSQTSKLTR
chain 2: VVGGEDAKPGQFPWQVVLNGKVDAFCGGSIVNEKWIVTAAHCVETGVKITVVAGEHNIEETEHTEQNRSVIRIIPHHNYNAAINKYNHDIALLELDEPLVLNSYVTPICIADKEYTNIFLKFGSGYVSGWGRVFHKGYSALVLQYLRVPLVDRATCLESTKFTIYNNMFCAGFHEGGRDSCQGDSGGPHVTEVEGTSFLTGIISWGEECAMKGKYGIYTKVSEYVNWIKNKTKLT
B2: FIXa variant A103N/N105S/K247N/N249S/R318Y/R338E/R403E/E410N (enzyme)
light: B1 chain 1
heavy: B1 chain 2
B3: FIXa variant K247N/N249S/N260S/R318Y/R338E/R403E/E410N (enzyme)
light: B1 chain 1 with N103A, S105N
heavy: B1 chain 2 with N80S
notes: also called K82N/N84S/N95S/R150Y/R170E/R233E/E240N
B4: FIXa variant Y155F/K247N/N249S/N260S (enzyme)
light: B1 chain 1 with N103A, S105N
heavy: B1 chain 2 with N80S, Y138R, E158R, E223R, N230E
B5: FIXa variant R318Y/R338E/E410S (enzyme)
light: B1 chain 1 with N103A, S105N
heavy: B1 chain 2 with N67K, S69N, E223R, N230S
notes: also called R150Y/R170E/E240S
B6: FIXa variant R318Y/R338E/N346Y/R403E/E410N (enzyme)
light: B1 chain 1 with N103A, S105N
heavy: B1 chain 2 with N67K, S69N, N166Y
notes: also called R150Y/R170E/N178Y/R233E/E240N
B7: FIXa variant I251S/R318Y/R338E/E410N (enzyme)
light: B1 chain 1 with N103A, S105N
heavy: B1 chain 2 with N67K, S69N, I71S, E223R
notes: also called I86S/R150Y/R170E/E240N; I251S/R318Y/E410N/R338E
B8: FIXa variant R318Y/R338E/R403E/E410S (enzyme)
light: B1 chain 1 with N103A, S105N
heavy: B1 chain 2 with N67K, S69N, N230S
notes: also called R150Y/R170E/R233E/E240S
B9: FIXa variant R318Y/R338E/T343R/R403E/E410N (enzyme)
light: B1 chain 1 with N103A, S105N
heavy: B1 chain 2 with N67K, S69N, T163R
notes: also called R150Y/R170E/T175R/R233E/E240N
B10: FIXa variant K228N/K247N/N249S/R318Y/R338E/R403E/E410N (enzyme)
light: B1 chain 1 with N103A, S105N
heavy: B1 chain 2 with K48N
notes: also called K63N/K82N/N84S/R150Y/R170E/R233E/E240N
B11: FIXa variant R318Y/R338E/T343R/N346Y/R403E/E410N (enzyme)
light: B1 chain 1 with N103A, S105N
heavy: B1 chain 2 with N67K, S69N, T163R, N166Y
notes: also called R150Y/R170E/T175R/N178Y/R233E/E240N
B12: FIXa variant R318Y/R338E/N346D/R403E/E410N (enzyme)
light: B1 chain 1 with N103A, S105N
heavy: B1 chain 2 with N67K, S69N, N166D
notes: also called R150Y/R170E/N178D/R233E/E240N
B13: FIXa variant I251S/R318Y/R338E/R403E/E410N (enzyme)
light: B1 chain 1 with N103A, S105N
heavy: B1 chain 2 with N67K, S69N, I71S
notes: also called I86S/R150Y/R170E/R233E/E240N
B14: FIXa variant D104N/K106S/I251S/R318Y/R338E/R403E/E410N (enzyme)
light: B1 chain 1 with N103A, D104N, S105N, K106S
heavy: B1 chain 2 with N67K, S69N, I71S
B15: FIXa variant K228N/K247N/N249S (enzyme)
light: B1 chain 1 with N103A, S105N
heavy: B1 chain 2 with K48N, Y138R, E158R, E223R, N230E
notes: also called K63N/K82N/N84S
B16: FIXa variant D104N/K106S/K247N/N249S/R318Y/R338E/R403E/E410N (enzyme)
light: B1 chain 1 with N103A, D104N, S105N, K106S
heavy: B1 chain 2
B17: FIXa variant Y155F/K247N/N249S/R318Y/R338E/E410N (enzyme)
light: B1 chain 1 with N103A, S105N
heavy: B1 chain 2 with E223R
B18: FIXa variant D104N/K106S/I251S/R318Y/R338E/E410N (enzyme)
light: B1 chain 1 with N103A, D104N, S105N, K106S
heavy: B1 chain 2 with N67K, S69N, I71S, E223R
B19: FIXa variant R318Y/R338E/E410N/T412V (enzyme)
light: B1 chain 1 with N103A, S105N
heavy: B1 chain 2 with N67K, S69N, E223R, T232V
notes: also called R150Y/R170E/E240N/T242V
B20: FIXa variant R318Y/R338E/T343R/N346D/R403E/E410N (enzyme)
light: B1 chain 1 with N103A, S105N
heavy: B1 chain 2 with N67K, S69N, T163R, N166D
notes: also called R150Y/R170E/T175R/N178D/R233E/E240N
B21: FIXa variant Y259F/K265T/Y345T (enzyme)
light: B1 chain 1 with N103A, S105N
heavy: B1 chain 2 with N67K, S69N, Y79F, K85T, Y138R, E158R, Y165T, E223R, N230E
notes: also called Y94F/K98T/Y177T
B22: FIXa variant R318Y/R338E/R403E/E410N/T412V (enzyme)
light: B1 chain 1 with N103A, S105N
heavy: B1 chain 2 with N67K, S69N, T232V
notes: also called R150Y/R170E/R233E/E240N/T242V
B23: FIXa variant Y155F/K228N/R318Y/R338E/R403E/E410N (enzyme)
light: B1 chain 1 with N103A, S105N
heavy: B1 chain 2 with K48N, N67K, S69N
B24: FIXa variant K247N/N249S/N260S (enzyme)
light: B1 chain 1 with N103A, S105N
heavy: B1 chain 2 with N80S, Y138R, E158R, E223R, N230E
notes: also called K82N/N84S/N95S
B25: FIXa-Y155F/R318Y/R338E/T343R/E410N (enzyme)
chain 1: B1 chain 1 with N103A, S105N
chain 2: B1 chain 2 with N67K, S69N, T163R, E223R
B26: FIXa-Y155F/R338E/T343R/R403E/E410N (enzyme)
chain 1: B1 chain 1 with N103A, S105N
chain 2: B1 chain 2 with N67K, S69N, Y138R, T163R
B27: FIXa-Y155F/R318Y/R338E/T343R (enzyme)
chain 1: B1 chain 1 with N103A, S105N
chain 2: B1 chain 2 with N67K, S69N, T163R, E223R, N230E
B28: FIXa-Y155F/R338E/T343R/R403E (enzyme)
chain 1: B1 chain 1 with N103A, S105N
chain 2: B1 chain 2 with N67K, S69N, Y138R, T163R, N230E
B29: FIXa-Y155F/K228N/K247N/N249S/R318Y/R338E/T343R/R403E/E410N (enzyme)
chain 1: B1 chain 1 with N103A, S105N
chain 2: B1 chain 2 with K48N, T163R
B30: FIXa-Y155F/R338E/T343R/E410N (enzyme)
chain 1: B1 chain 1 with N103A, S105N
chain 2: B1 chain 2 with N67K, S69N, Y138R, T163R, E223R
B31: FIXa-Y155F/K247N/N249S/R318Y/R338E/T343R (enzyme)
chain 1: B1 chain 1 with N103A, S105N
chain 2: B1 chain 2 with T163R, E223R, N230E

What follows are binders tested against T3, plasma purified human AT-III (antithrombin III) (human, UniProt P01008 33-464) (assay: K0.5: AT-III/UFH titrated on FIXa, residual activity on fluorogenic substrate).
T3 construct: also called AT-III/UFH (in complex with unfractionated heparin)

Row | Binder | IC50 [nM]
1 | B1 | 2500

These binders were tested against T1, Factor VIIIa (FVIIIa), from recombinant … (assay: ratio of KD-app of Catalyst Biosciences WT FIXa to KD-app of the variant, same Xase assay).
Text: (§1) The activity of alpha-thrombin was then quenched by the addition of a highly specific thrombin inhibitor, hirudin, prior to initiating the assay.

Row | Binder | KD-WT/KD-mut [fold]
2 | B2 | 1
3 | B3 | 1.5
4 | B4 | 0.6
5 | B5 | 14.1
6 | B6 | 2.4
7 | B7 | 16.7
8 | B8 | 1.8
9 | B9 | 6.6
10 | B10 | 0.9
11 | B11 | 6.1
12 | B12 | 0.9
13 | B13 | 1.5
14 | B14 | 1.7
15 | B15 | 0.8
16 | B16 | 1.1
17 | B17 | 12.8
18 | B18 | 7.7
19 | B19 | 10.7
20 | B20 | 1.3
21 | B21 | 0.8
22 | B22 | 1.7
23 | B23 | 3.1
24 | B24 | 0.6

These binders were tested against T2, Factor VIIIa (recombinant FVIII, …) (assay: functional cofactor affinity KD-app: fluorogenic FX activation (Xase) assay, FVIIIa titrated, PC/PS vesicles, saturating FX).
Experimental: Reactions were monitored in a SpectraMax fluorescence plate reader for 30 min at 37° C. A standard curve of free AMC served as the conversion factor for RFU to μM in the subsequent data analysis calculations using a dose range that covered 0 μM to 100 μM AMC.

Row | Binder | Kd [nM]
25 | B25 | 7.4
26 | B26 | 28.5
27 | B27 | 8.4
28 | B28 | 72.1
29 | B29 | 37
30 | B30 | 8.5
31 | B31 | 14

These binders were tested against T1, Factor VIIIa (FVIIIa), from recombinant … (assay: apparent functional KD (KD-app): FX activation rate vs FVIIIa titration, fluorogenic Xase assay with PC/PS vesicles and Ca2+).
Text: as §1

Row | Binder | Kd [nM]
32 | B2 | 93.1
33 | B3 | 65
34 | B4 | 167
35 | B5 | 6.8
36 | B6 | 39.6
37 | B7 | 5.7
38 | B8 | 53.1
39 | B9 | 14.5
40 | B10 | 100
41 | B11 | 15.6
42 | B12 | 110
43 | B13 | 62.7
44 | B14 | 54.7
45 | B15 | 113
46 | B16 | 87.4
47 | B17 | 7.4
48 | B18 | 12.4
49 | B19 | 8.9
50 | B20 | 76.2
51 | B21 | 115
52 | B22 | 55
53 | B23 | 31.2
54 | B24 | 147
